The values below are quoted from earlier work in publication PMC8174820.

The subject of the series is Tyr134. The experiment in a line: chemical modification.

In the case of “Cellular retinoic acid binding protein 2 (CRABP2) (Homo sapiens (inferred; the review discusses the human proteome but does not name the species for CRABP2))”, the pKa entry was “∼7.6”.
